Target: T1, DJ-1 (mouse (endogenous in mouse frontal cortex)), Q99LX0
T1 chain: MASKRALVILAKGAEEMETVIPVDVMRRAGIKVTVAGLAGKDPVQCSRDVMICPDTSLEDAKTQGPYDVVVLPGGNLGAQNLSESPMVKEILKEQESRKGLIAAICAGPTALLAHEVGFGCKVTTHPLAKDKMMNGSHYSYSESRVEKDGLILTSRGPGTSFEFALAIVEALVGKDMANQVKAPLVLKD
Test: cross-linking
Conditions: remark: other sources report otherwise

B1: DJ-1, Q99LX0 1-189 (natural protein)
chain: T1 chain
- stoichiometry N: 2
